The target in assay [1] is T1, human FcγRIIb extracellular domain with C-terminal His tag (human, UniProt P31994 43-217).
T1 construct: extracellular domain; not shown: His tag at the C terminus
T1 sequence (looked up): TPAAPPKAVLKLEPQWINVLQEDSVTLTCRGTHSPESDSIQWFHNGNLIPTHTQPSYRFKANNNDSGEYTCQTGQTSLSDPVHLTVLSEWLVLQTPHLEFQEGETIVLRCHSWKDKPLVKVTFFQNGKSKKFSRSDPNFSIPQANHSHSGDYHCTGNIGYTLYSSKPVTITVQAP
The assay can be described thus: SPR (Biacore), antibody captured, FcγR analyte. Background: In SPR one partner is held on a chip, and binding of the other changes the refractive index at the surface.

For assay [2], the target named is T2, human FcγRIIa type R extracellular domain with C-terminal His tag (human, UniProt P12318 34-217).
T2 construct: extracellular domain; also called FcγRIIaR; FcgRIIaR
T2 sequence (looked up): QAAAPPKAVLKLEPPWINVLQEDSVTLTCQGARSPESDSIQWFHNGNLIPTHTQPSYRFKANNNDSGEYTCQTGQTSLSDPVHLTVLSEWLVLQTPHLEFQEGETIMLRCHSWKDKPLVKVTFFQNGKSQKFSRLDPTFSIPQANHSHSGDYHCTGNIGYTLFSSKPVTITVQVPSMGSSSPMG
The assay can be described thus: SPR (Biacore), antibody captured, FcγR as analyte.

Assay [3] has as its target T3, human FcγRIa extracellular domain with C-terminal His tag (human, UniProt P12314 16-292).
T3 construct: also called FcgRIa
The assay is described as follows: SPR (Biacore), antibody captured, FcγR as analyte.

Assay [4] concerns the target T4, human FcγRIIb extracellular domain with C-terminal His tag (human, UniProt P31994 43-217).
T4 construct: extracellular domain; also called FcgRIIb
T4 sequence (looked up): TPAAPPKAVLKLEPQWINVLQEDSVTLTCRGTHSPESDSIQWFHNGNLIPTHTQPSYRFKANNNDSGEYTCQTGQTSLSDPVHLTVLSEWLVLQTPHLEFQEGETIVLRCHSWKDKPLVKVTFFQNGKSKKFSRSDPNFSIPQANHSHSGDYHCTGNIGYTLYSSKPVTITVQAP
The assay can be described thus: SPR (Biacore), antibody captured, FcγR as analyte.

Assay [5] deals with T5, human FcγRIIa type R (R131) extracellular domain with C-terminal His tag (human, UniProt P12318 34-217).
T5 construct: extracellular domain; also called FcγRIIaR; not shown: His tag at the C terminus
T5 sequence (looked up): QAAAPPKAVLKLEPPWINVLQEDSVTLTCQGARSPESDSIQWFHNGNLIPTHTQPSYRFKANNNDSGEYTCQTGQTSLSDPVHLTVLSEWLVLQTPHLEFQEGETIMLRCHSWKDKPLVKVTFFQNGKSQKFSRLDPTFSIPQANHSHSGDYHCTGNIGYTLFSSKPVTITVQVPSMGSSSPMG
The assay is described as follows: SPR (Biacore), antibody captured, FcγR analyte.

T3 sequence (P12314 16-292): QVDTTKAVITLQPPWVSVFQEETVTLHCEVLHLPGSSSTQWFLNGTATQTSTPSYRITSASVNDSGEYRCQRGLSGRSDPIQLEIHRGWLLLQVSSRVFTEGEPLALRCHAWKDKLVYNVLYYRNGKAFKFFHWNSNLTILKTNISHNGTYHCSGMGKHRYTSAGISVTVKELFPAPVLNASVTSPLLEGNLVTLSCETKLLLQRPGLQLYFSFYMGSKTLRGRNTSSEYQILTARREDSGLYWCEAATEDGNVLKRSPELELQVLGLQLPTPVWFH

B1: IL6R-BP228/IL6R-L (antibody, human IgG1, kappa)
heavy: QVQLQESGPGLVKPSETLSLTCAVSGHSISHDHAWSWVRQPPGEGLEWIGFISYSGITNYNPSLQGRVTISRDNSKNTLYLQMNSLRAEDTAVYYCARSLARTTAMDYWGEGTLVTVSSASTKGPSVFPLAPSSKSTSGGTAALGCLVKDYFPEPVTVSWNSGALTSGVHTFPAVLQSSGLYSLSSVVTVPSSSLGTQTYICNVNHKPSNTKVDKKVEPKSCDKTHTCPPCPAPEYLGDDSVFLFPPKPKDTLMISRTPEVTCVVVDVQDEDGEVKFNWYVDGVEVHNAKTKPREEQYNSTYRVVSVLTVLHQDWLNGKEYKCKVSNDALPRPIEKTISKAKGQPREPQVYTLPPSRDELTKNQVSLTCLVKGFYPSDIAVEWESNGQPENNYKTTPPVLDSDGSFFLYSKLTVDKSRWQQGNVFSCSVMHEALHNHYTQESLSLSP
light: not shown
notes: copies: 2 + 2
What is called Kd is the equilibrium constant for the complex coming apart. In assay [1], B1 registered a Kd of 40 nM.

B2: IL6R-2B172/IL6R-L (antibody, human IgG1, kappa)
heavy: QVQLQESGPGLVKPSETLSLTCAVSGHSISHDHAWSWVRQPPGEGLEWIGFISYSGITNYNPSLQGRVTISRDNSKNTLYLQMNSLRAEDTAVYYCARSLARTTAMDYWGEGTLVTVSSASTKGPSVFPLAPSSKSTSGGTAALGCLVKDYFPEPVTVSWNSGALTSGVHTFPAVLQSSGLYSLSSVVTVPSSSLGTQTYICNVNHKPSNTKVDKKVEPKSCDKTHTCPPCPAPELLGGDSVFLFPPKPKDTLMISRTPEVTCVVVDVSHEDPEVKFNWYVDGVEVHNAKTKPREEQYNSTYRVVSVLTVLHQDWLNGKEYKCKMSNKALPAPIEKTISKAKGQPREPQVYTLPPSRDELTKNQVSLTCLVKGFYPSDIAVEWESNGQPENNYKTTPPVLDSDGSFFLYSKLTVDKSRWQQGNVFSCSVMHEALHNHYTQESLSLSP
light: not shown
notes: IgG1 type
Consider B2, for which the results for the Kd in assay [2] and in assay [3] were 6100 nM and 3 nM, respectively. Further, the “KD(IIb) of parent polypeptide/KD(IIb) of altered polypeptide” value in assay [4] was determined as 4 fold vs IL6R-B3/IL6R-L.

B3: IL6R-BP471/IL6R-L (antibody, human IgG1, kappa)
heavy: QVQLQESGPGLVKPSETLSLTCAVSGHSISHDHAWSWVRQPPGEGLEWIGFISYSGITNYNPSLQGRVTISRDNSKNTLYLQMNSLRAEDTAVYYCARSLARTTAMDYWGEGTLVTVSSASTKGPSVFPLAPSSKSTSGGTAALGCLVKDYFPEPVTVSWNSGALTSGVHTFPAVLQSSGLYSLSSVVTVPSSSLGTQTYICNVNHKPSNTKVDKKVEPKSCDKTHTCPPCPAPDLLGDDSVFLFPPKPKDTLMISRTPEVTCVVVDVSDEDGEVKFNWYVDGVEVHNAKTKPREEQDNSTYRVVSVLTVLHQDWLNGKEYKCKVSNKALPRSIEKTISKAKGQPREPQVYTLPPSRDELTKNQVSLTCLVKGFYPSDIAVEWESNGQPENNYKTTPPVLDSDGSFFLYSKLTVDKSRWQQGNVFSCSVMHEALHNHYTQESLSLSP
light: not shown
notes: P331S introduced into IL6R-BP230; copies: 2 + 2
Consider B3, for which the affinity in assay [5], expressed as Kd, was 800 nM.

B4: IL6R-BP237/IL6R-L (antibody, human IgG1, kappa)
heavy: QVQLQESGPGLVKPSETLSLTCAVSGHSISHDHAWSWVRQPPGEGLEWIGFISYSGITNYNPSLQGRVTISRDNSKNTLYLQMNSLRAEDTAVYYCARSLARTTAMDYWGEGTLVTVSSASTKGPSVFPLAPSSKSTSGGTAALGCLVKDYFPEPVTVSWNSGALTSGVHTFPAVLQSSGLYSLSSVVTVPSSSLGTQTYICNVNHKPSNTKVDKKVEPKSCDKTHTCPPCPAPDYLGDDSVFLFPPKPKDTLMISRTPEVTCVVVDVQDEDGEVKFNWYVDGVEVHNAKTKPREEQDNSTYRVVSVLTVLHQDWLNGKEYKCKVSNAALPKPIEKTISKAKGQPREPQVYTLPPSRDELTKNQVSLTCLVKGFYPSDIAVEWESNGQPENNYKTTPPVLDSDGSFFLYSKLTVDKSRWQQGNVFSCSVMHEALHNHYTQESLSLSP
light: not shown
notes: copies: 2 + 2
In turn, B4 displayed a Kd in assay [1] of 100 nM.

B5: IL6R-BP475/IL6R-L (antibody, human IgG1, kappa)
heavy: QVQLQESGPGLVKPSETLSLTCAVSGHSISHDHAWSWVRQPPGEGLEWIGFISYSGITNYNPSLQGRVTISRDNSKNTLYLQMNSLRAEDTAVYYCARSLARTTAMDYWGEGTLVTVSSASTKGPSVFPLAPSSKSTSGGTAALGCLVKDYFPEPVTVSWNSGALTSGVHTFPAVLQSSGLYSLSSVVTVPSSSLGTQTYICNVNHKPSNTKVDKKVEPKSCDKTHTCPPCPAPDLLGDDSVFLFPPKPKDTLMISRTPEVTCVVVDVSDEDGEVKFNWYVDGVEVHNAKTKPREEQDNSTYRVVSVLTVLHQDWLNGKEYKCKVSNKGLPSPIEKTISKAKGQPREPQVYTLPPSRDELTKNQVSLTCLVKGFYPSDIAVEWESNGQPENNYKTTPPVLDSDGSFFLYSKLTVDKSRWQQGNVFSCSVMHEALHNHYTQESLSLSP
light: not shown
notes: A327G and A330S introduced into IL6R-BP230; copies: 2 + 2
The molecule B5 registered a Kd in assay [5] of 1000 nM.
